From paper PMC11575404

Columns and labels:
[1] = target: SARS-CoV-2 N protein truncation NΔN180, Myc-tagged (SARS-CoV-2) (UniProt P0DTC9); assay: cross-linking
[2] = target: SARS-CoV-2 N protein truncation NΔN247, Myc-tagged (SARS-CoV-2) (UniProt P0DTC9); assay: cross-linking

| Substance | stoichiometry N [1] | stoichiometry N [2] |
| --- | --- | --- |
| SARS-CoV-2 N protein truncation NΔN180, Myc-tagged (from UniProt P0DTC9 181-419) (domain or fragment) | 2 | – |
| SARS-CoV-2 N protein truncation NΔN247, Myc-tagged (from UniProt P0DTC9 248-419) (domain or fragment) | – | 2 |
